Patent US20250270332A1

B1: CT0001 (bispecific antibody)
heavy 1: EVQLVESGGGLVQPGGSLRLSCAASGFNIHSSSIHWVRQAPGKGLEWVAATYSSFGSITYADSVKGRFTISADTSKNTAYLQMNSLRAEDTAVYYCARYHHPFGYALDYWGQGTLVTVSSASTKGPSVFPLAPSSKSTSGGTAALGCLVKDYFPEPVTVSWNSGALTSGVHTFPAVLQSSGLYSLSSVVTVPSSSLGTQTYICNVNHKPSNTKVDKKVEPKSCDKTHTCPPCPAPELLGGPSVFLFPPKPKDTLMISRTPEVTCVVVDVSHEDPEVKFNWYVDGVEVHNAKTKPREEQYNSTYRVVSVLTVLHQDWLNGKEYKCKVSNKALPAPIEKTISKAKGQPREPQVYTLPPIRELMTSNQVSLSCAVKGFYPSDIAVEWESNGQPENNYKTTPPVLDSDGSFFLVSKLTVDKSRWQQGNVFSCSVMHEALHNHYTQKSLSLSPGKSGSETPGTSESATPESGGGEVQLVESGGGLVQPGGSLRLSCAASGFNISSYYIHWVRQAPGKGLEWVASIYSSYGYTSYADSVKGRFTISADTSKNTAYLQMNSLRAEDTAVYYCARTVRGSKKPYFSGWAMDYWGQGTLVTVSSGGGGSDIQMTQSPSSLSASVGDRVTITCRASQSVSSAVAWYQQKPGKAPKLLIYSASSLYSGVPSRFSGSRSGTDFTLTISSLQPEDFATYYCQQYSWGPFTFGQGTKVEIK
heavy 2: EVQLVESGGGLVQPGGSLRLSCAASGFNIHSSSIHWVRQAPGKGLEWVAATYSSFGSITYADSVKGRFTISADTSKNTAYLQMNSLRAEDTAVYYCARYHHPFGYALDYWGQGTLVTVSSASTKGPSVFPLAPSSKSTSGGTAALGCLVKDYFPEPVTVSWNSGALTSGVHTFPAVLQSSGLYSLSSVVTVPSSSLGTQTYICNVNHKPSNTKVDKKVEPKSCDKTHTCPPCPAPELLGGPSVFLFPPKPKDTLMISRTPEVTCVVVDVSHEDPEVKFNWYVDGVEVHNAKTKPREEQYNSTYRVVSVLTVLHQDWLNGKEYKCKVSNKALPAPIEKTISKAKGQPREPMVFDLPPSREEMTKNQVSLWCMVKGFYPSDIAVEWESNGQPENNYKTTPPVLDSDGSFFLYSKLTVDKSRWQQGNVFSCSVMHEALHNHYTQKSLSLSPGKSGSETPGTSESATPESGGGEVQLVESGGGLVQPGGSLRLSCAASGFNISYSSIHWVRQAPGKGLEWVAYISSYYGYTYYADSVKGRFTISADTSKNTAYLQMNSLRAEDTAVYYCARAHYFPWAGAMDYWGQGTLVTVSSGGGGSDIQMTQSPSSLSASVGDRVTITCRASQSVSSAVAWYQQKPGKAPKLLIYSASSLYSGVPSRFSGSRSGTDFTLTISSLQPEDFATYYCQQYYWPITFGQGTKVEIK
light: DIQMTQSPSSLSASVGDRVTITCRASQSVSSAVAWYQQKPGKAPKLLIYSASSLYSGVPSRFSGSRSGTDFTLTISSLQPEDFATYYCQQGVYLFTFGQGTKVEIKRTVAAPSVFIFPPSDEQLKSGTASVVCLLNNFYPREAKVQWKVDNALQSGNSQESVTEQDSKDSTYSLSSTLTLSKADYEKHKVYACEVTHQGLSSPVTKSFNRGEC
B2: CM0126 (Dia-Fc-Dia) (bispecific antibody)
chain 1: MNLLLILTFVAAAVAEFEVQLVESGGGLVQPGGSLRLSCAASGFNIHSSSIHWVRQAPGKGLEWVAATYSSFGSITYADSVKGRFTISADTSKNTAYLQMNSLRAEDTAVYYCARYHHPFGYALDYWGQGTLVTVSSGGGGSDIQMTQSPSSLSASVGDRVTITCRASQSVSSAVAWYQQKPGKAPKLLIYSASSLYSGVPSRFSGSRSGTDFTLTISSLQPEDFATYYCQQGVYLFTFGQGTKVEIKLEDKTHTKVEPKSSDKTHNCPPCPAPELLGGPSVFLFPPKPKDTLMISRTPEVTCVVVDVSHEDPEVKFNWYVDGVEVHNAKTKPREEQYNSTYRVVSVLTVLHQDWLNGKEYKCKVSNKALPAPIEKTISKAKGQPREPQVYTLPPIRELMTSNQVSLSCAVKGFYPSDIAVEWESNGQPENNYKTTPPVLDSDGSFFLVSKLTVDKSRWQQGNVFSCSVMHEALHNHYTQKSLSLSPGKSGSETPGTSESATPESGGGEVQLVESGGGLVQPGGSLRLSCAASGFNISSYYIHWVRQAPGKGLEWVASIYSSYGYTSYADSVKGRFTISADTSKNTAYLQMNSLRAEDTAVYYCARTVRGSKKPYFSGWAMDYWGQGTLVTVSSGGGGSDIQMTQSPSSLSASVGDRVTITCRASQSVSSAVAWYQQKPGKAPKLLIYSASSLYSGVPSRFSGSRSGTDFTLTISSLQPEDFATYYCQQYSWGPFTFGQGTKVEIK
chain 2: MNLLLILTFVAAAVAEFEVQLVESGGGLVQPGGSLRLSCAASGFNIHSSSIHWVRQAPGKGLEWVAATYSSFGSITYADSVKGRFTISADTSKNTAYLQMNSLRAEDTAVYYCARYHHPFGYALDYWGQGTLVTVSSGGGGSDIQMTQSPSSLSASVGDRVTITCRASQSVSSAVAWYQQKPGKAPKLLIYSASSLYSGVPSRFSGSRSGTDFTLTISSLQPEDFATYYCQQGVYLFTFGQGTKVEIKLEDKTHTKVEPKTSDKTHTCPPCPAPELLGGPSVFLFPPKPKDTLMISRTPEVTCVVVDVSHEDPEVKFNWYVDGVEVHNAKTKPREEQYNSTYRVVSVLTVLHQDWLNGKEYKCKVSNKALPAPIEKTISKAKGQPREPMVFDLPPSREEMTKNQVSLWCMVKGFYPSDIAVEWESNGQPENNYKTTPPVLDSDGSFFLYSKLTVDKSRWQQGNVFSCSVMHEALHNHYTQKSLSLSPGKSGSETPGTSESATPESGGGEVQLVESGGGLVQPGGSLRLSCAASGFNISYSSIHWVRQAPGKGLEWVAYISSYYGYTYYADSVKGRFTISADTSKNTAYLQMNSLRAEDTAVYYCARAHYFPWAGAMDYWGQGTLVTVSSGGGGSDIQMTQSPSSLSASVGDRVTITCRASQSVSSAVAWYQQKPGKAPKLLIYSASSLYSGVPSRFSGSRSGTDFTLTISSLQPEDFATYYCQQYYWPITFGQGTKVEIK
B3: ANT-1 (bispecific antibody)
heavy 1: MNLLLILTFVAAAVAEFEVQLVESGGGLVQPGGSLRLSCAASGFNISSYYIHWVRQAPGKGLEWVASIYSSYGYTSYADSVKGRFTISADTSKNTAYLQMNSLRAEDTAVYYCARTVRGSKKPYFSGWAMDYWGQGTLVTVSSGGGGSDIQMTQSPSSLSASVGDRVTITCRASQSVSSAVAWYQQKPGKAPKLLIYSASSLYSGVPSRFSGSRSGTDFTLTISSLQPEDFATYYCQQYYFLITFGQGTKVEIKLEDKTHTKVEPKSSDKTHNCPPCPAPELLGGPSVFLFPPKPKDTLMISRTPEVTCVVVDVSHEDPEVKFNWYVDGVEVHNAKTKPREEQYNSTYRVVSVLTVLHQDWLNGKEYKCKVSNKALPAPIEKTISKAKGQPREPQVYTLPPIRELMTSNQVSLSCAVKGFYPSDIAVEWESNGQPENNYKTTPPVLDSDGSFFLVSKLTVDKSRWQQGNVFSCSVMHEALHNHYTQKSLSLSPGKSGSETPGTSESATPESGGGEVQLVESGGGLVQPGGSLRLSCAASGFNIHSSSIHWVRQAPGKGLEWVAATYSSFGSITYADSVKGRFTISADTSKNTAYLQMNSLRAEDTAVYYCARYHHPFGYALDYWGQGTLVTVSSASTKGPSVFPLAPSSKSTSGGTAALGCLVKDYFPEPVTVSWNSGALTSGVHTFPAVLQSSGLYSLSSVVTVPSSSLGTQTYICNVNHKPSNTKVDKKVEPKSCDKTHT
heavy 2: MNLLLILTFVAAAVAEFEVQLVESGGGLVQPGGSLRLSCAASGFNISYSSIHWVRQAPGKGLEWVASISPYYGYTYYADSVKGRFTISADTSKNTAYLQMNSLRAEDTAVYYCARSSYFPWFSAMDYWGQGTLVTVSSGGGGSDIQMTQSPSSLSASVGDRVTITCRASQSVSSAVAWYQQKPGKAPKLLIYSASSLYSGVPSRFSGSRSGTDFTLTISSLQPEDFATYYCQQYYWPITFGQGTKVEIKLEDKTHTKVEPKTSDKTHTCPPCPAPELLGGPSVFLFPPKPKDTLMISRTPEVTCVVVDVSHEDPEVKFNWYVDGVEVHNAKTKPREEQYNSTYRVVSVLTVLHQDWLNGKEYKCKVSNKALPAPIEKTISKAKGQPREPMVFDLPPSREEMTKNQVSLWCMVKGFYPSDIAVEWESNGQPENNYKTTPPVLDSDGSFFLYSKLTVDKSRWQQGNVFSCSVMHEALHNHYTQKSLSLSPGKSGSETPGTSESATPESGGGEVQLVESGGGLVQPGGSLRLSCAASGFNIHSSSIHWVRQAPGKGLEWVAATYSSFGSITYADSVKGRFTISADTSKNTAYLQMNSLRAEDTAVYYCARYHHPFGYALDYWGQGTLVTVSSASTKGPSVFPLAPSSKSTSGGTAALGCLVKDYFPEPVTVSWNSGALTSGVHTFPAVLQSSGLYSLSSVVTVPSSSLGTQTYICNVNHKPSNTKVDKKVEPKSCDKTHT
light: DIQMTQSPSSLSASVGDRVTITCRASQSVSSAVAWYQQKPGKAPKLLIYSASSLYSGVPSRFSGSRSGTDFTLTISSLQPEDFATYYCQQGVYLFTFGQGTKVEIKRTVAAPSVFIFPPSDEQLKSGTASVVCLLNNFYPREAKVQWKVDNALQSGNSQESVTEQDSKDSTYSLSSTLTLSKADYEKHKVYACEVTHQGLSSPVTKSFNRGEC

Each binder was assayed against FZD1/2/4/5/7/8 (assay: cell-based or functional assay).

In order of falling % Wnt Maxima Avg:
1. B1  57%
2. B2  52%
3. B3  49%

In order of falling EC50 (nM), TOPFLASH assay:
1. B3  0.7 nM
2. B1  0.3 nM
3. B2  0.3 nM

In order of rising Maximal Signal (% Wnt3a maxima) (% Wnt3a maxima):
1. B3  50
2. B2  52
3. B1  57

In order of rising Topflash EC50 (nM) Avg:
1. B1  0.3 nM
2. B2  0.3 nM
3. B3  0.7 nM
